In paper PMC11674933, “Discovery of Carbonic Anhydrase 9 as a Novel CLEC2 Ligand in a Cellular Interactome Screen” (Cells, 2024):

Molecular target: CA9^38−414-His-avi (human, UniProt Q16790, biotin (biotinylated))
Experiment: AlphaScreen or HTRF; validation of the AlphaLISA set-up (Figure S6) with tagged G250 against a control library protein; CA9 on the beads at 15 nM or 60 nM
Conditions: one partner purified

- binding result: binds
B1: 2E3 tagged Girentuximab (G250) (antibody, V domains shown)
VH: DVKLVESGGGLVKLGGSLKLSCAASGFTFSNYYMSWVRQTPEKRLELVAAINSDGGITYYLDTVKGRFTISRDNAKNTLYLQMSSLKSEDTALFYCARHRSGYFSMDYWGQGTSVTVSS
VL: DIVMTQSQRFMSTTVGDRVSITCKASQNVVSAVAWYQQKPGQSPKLLIYSASNRYTGVPDRFTGSGSGTDFTLTISNMQSEDLADFFCQQYSNYPWTFGGGTKLEIK
notes: tagged versions of Girentuximab (G250); also called anti-CA9; G250 constructs
